Consider 10 molecules from patent publication US20230287082A1 (published 2023).

Changes are numbered by the printed parent chain.

The chains are these.
T1: yeast surface displayed ΔB7-H6 (wild-type) (human, UniProt Q68D85 25-145)
T1 construct: also called wild-type ΔB7-H6 on yeast; not shown: Aga2p fusion partner of the pYD-derived vector
T1 sequence: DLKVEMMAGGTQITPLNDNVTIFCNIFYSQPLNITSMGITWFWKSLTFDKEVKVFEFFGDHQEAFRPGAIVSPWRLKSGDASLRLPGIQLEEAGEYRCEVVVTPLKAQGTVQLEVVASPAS

B1: human NKp30 (receptor, UniProt O14931 19-135, looked up)
chain: LWVSQPPEIRTLEGSSAFLPCSFNASQGRLAIGSVTWFRDEVVPGKEVRNGTPEFRGRLAPLASSRFLHDHQAELHIRDVRGHDASIYVCRVEVLGLGVGTGNGTRLVVEKEHPQLG
notes: Soluble analyte in BLI; also called recombinant NKp30; his-tagged NKp30 (Abcam)
B2: ΔB7-H6_S3#22-SEED-PGLALA (bispecific antibody, part only; not given: SEED Fc chains and hu225 Fab, part only)
chain, part: T1 sequence with S36E, F58W, L105Y
B3: ΔB7-H6_S3#23-SEED-PGLALA (bispecific antibody, part only; not given: SEED Fc chains and hu225 Fab, part only)
chain, part: T1 sequence with S36E, F58Y, L105Y
B4: ΔB7-H6_S2#1-SEED-PGLALA (bispecific antibody, part only; not given: SEED Fc chains and hu225 EGFR Fab, part only)
chain, part: T1 sequence with F58Y, L105Y
B5: ΔB7-H6_S3#26-SEED-PGLALA (bispecific antibody, part only; not given: SEED Fc chains and hu225 Fab, part only)
chain, part: T1 sequence with S36T, F58W, G59D, L105Y
B6: ΔB7-H6_S2#7-SEED-PGLALA (bispecific antibody, part only; not given: SEED Fc chains and hu225 Fab, part only)
chain, part: T1 sequence with F58Y, V101I, L105Y, A117T
B7: ΔB7-H6_S2#2-SEED-PGLALA (bispecific antibody, part only; not given: SEED Fc chains and hu225 Fab, part only)
chain, part: T1 sequence with F58W, G59D, L105Y
B8: ΔB7-H6_S3#30-SEED-PGLALA (bispecific antibody, part only; not given: SEED Fc chains and hu225 Fab, part only)
chain, part: T1 sequence with S36E, F58W, V101I
B9: ΔB7-H6_S3#28-SEED-PGLALA (bispecific antibody, part only; not given: SEED Fc chains and hu225 EGFR Fab, part only)
chain, part: T1 sequence with S36H, F58W
B10: ΔB7-H6_S2#3-SEED-PGLALA (bispecific antibody, part only; not given: SEED Fc chains and hu225 Fab, part only)
chain, part: T1 sequence with S36T, F58W

The first assay has as its target T1, yeast surface displayed ΔB7-H6 …. Kind of assay: yeast surface display, flow cytometry.
B1: the binding result is reported as “binds”.

For the next assay, the target named is human NKp30 (human) (UniProt O14931). Kind of assay: BLI, ratio to ΔB7-H6_wt.
B2: the KD improvement compared to ΔB7-H6 wt was 4.3 fold, the x-fold KD improvement came out at 4.3 fold and the x-fold Koff improvement was found to be 3.8 fold.

As to B3, the KD improvement compared to ΔB7-H6 wt came to 3.7 fold, the x-fold KD improvement stood at 3.7 fold and the x-fold Koff improvement was found to be 3.2 fold.

As for B4, the KD improvement compared to ΔB7-H6 wt stood at 2 fold, the x-fold KD improvement was 2 fold and the x-fold Koff improvement amounted to 2.2 fold.

As for B5, the KD improvement compared to ΔB7-H6 wt worked out at 3.6 fold, the x-fold KD improvement is 3.6 fold and the x-fold Koff improvement was found to be 3.6 fold.

As to B6, the KD improvement compared to ΔB7-H6 wt was determined as 2.1 fold, the x-fold KD improvement turned out to be 2.1 fold and the x-fold Koff improvement stood at 1.7 fold.

Turning to B7, the KD improvement compared to ΔB7-H6 wt is 1.9 fold, the x-fold KD improvement is 1.9 fold and the x-fold Koff improvement amounted to 2.3 fold.

For B8, the KD improvement compared to ΔB7-H6 wt amounted to 3.3 fold, the x-fold KD improvement came to 3.3 fold and the x-fold Koff improvement came to 2.2 fold.

Regarding B9, the KD improvement compared to ΔB7-H6 wt was 0.9 fold, the x-fold KD improvement is 0.9 fold and the x-fold Koff improvement amounted to 1.2 fold.

As for B10, the KD improvement compared to ΔB7-H6 wt came out at 2.1 fold, the x-fold KD improvement was 2.1 fold and the x-fold Koff improvement came out at 1.6 fold.

For a further assay the target is unchanged. Kind of assay: BLI, immunoligand on anti-hFc tip.
For the molecule B2, the Kd was 95.2 nM, the koff is 0.0441 s⁻¹ and the kon came to 463000 M⁻¹ s⁻¹.

In turn, B3 returned a Kd of 110 nM, a koff of 0.0525 s⁻¹ and a kon of 479000 M⁻¹ s⁻¹.

The molecule B4 registered a Kd of 205 nM, a koff of 0.078 s⁻¹ and a kon of 380000 M⁻¹ s⁻¹.

B5: the Kd worked out at 113 nM, the koff was 0.0464 s⁻¹ and the kon was found to be 409000 M⁻¹ s⁻¹.

Turning to B6, the Kd was 191 nM, the koff worked out at 0.0964 s⁻¹ and the kon came to 504000 M⁻¹ s⁻¹.

Molecule B7 displayed a Kd of 217 nM, a koff of 0.0737 s⁻¹ and a kon of 340000 M⁻¹ s⁻¹.

In turn, B8 gave a Kd of 125 nM, a koff of 0.0776 s⁻¹ and a kon of 622000 M⁻¹ s⁻¹.

On to B9, for which the Kd came to 443 nM, the koff was determined as 0.136 s⁻¹ and the kon stood at 306000 M⁻¹ s⁻¹.

Molecule B10 had a Kd of 194 nM, a koff of 0.106 s⁻¹ and a kon of 546000 M⁻¹ s⁻¹.

The target of a further assay is NKp30 on human NK cells (human) (UniProt O14931). In words: cell-based or functional assay.
Chain of NKp30 on human NK cells (human) (O14931 19-201): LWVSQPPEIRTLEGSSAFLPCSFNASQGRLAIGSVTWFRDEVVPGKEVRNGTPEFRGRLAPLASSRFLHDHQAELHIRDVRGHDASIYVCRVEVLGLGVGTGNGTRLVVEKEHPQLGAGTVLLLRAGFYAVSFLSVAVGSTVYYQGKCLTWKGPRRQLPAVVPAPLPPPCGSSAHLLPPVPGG
B2 came in with an EC50 (pM), A431 lysis with PBMC of 106 pM and an EC50 improvement compared to ΔB7-H6 wt of 8 fold.

B3 had an EC50 (pM), A431 lysis with PBMC of 78 pM and an EC50 improvement compared to ΔB7-H6 wt of 11 fold.

As for B4, the EC50 (pM), A431 lysis with PBMC was 140 pM and the EC50 improvement compared to ΔB7-H6 wt came to 6 fold.

With B5, the EC50 (pM), A431 lysis with PBMC came to 22.7 pM and the EC50 improvement compared to ΔB7-H6 wt worked out at 38 fold.

The molecule B6 came in with an EC50 (pM), A431 lysis with PBMC of 170 pM and an EC50 improvement compared to ΔB7-H6 wt of 5 fold.

As to B7, the EC50 (pM), A431 lysis with PBMC came to 169 pM and the EC50 improvement compared to ΔB7-H6 wt came to 5 fold.

As for B8, the EC50 (pM), A431 lysis with PBMC was 176 pM and the EC50 improvement compared to ΔB7-H6 wt amounted to 5 fold.

In the case of B9, the EC50 (pM), A431 lysis with PBMC was determined as 114 pM and the EC50 improvement compared to ΔB7-H6 wt was 8 fold.

The molecule B10 showed an EC50 (pM), A431 lysis with PBMC of 175 pM and an EC50 improvement compared to ΔB7-H6 wt of 5 fold.
